Experimental data published in patent publication US20260209316A1 (US Dept. of Health and Human Services, published 2026).

B1: antibody 315S (antibody, V domains shown)
VH: EVQLVESGGGVVQPGRSLRLSCAASGFTFKTYTMHWVRQAPGKGLEWVAVITDDGVNKKYADSVKGRFTISRDNSKNTLYLQMNSLRLEDTAVYYCARSVVVLAAYPLDYWGQGTMVTVSS
VL: DIQMTQSPSSLSASVGDRVTITCRASQTISTYLHWYQQRPGKAPKLLIYAASSLQSGVPSRVSGSGSGTDFTLTITSLQPEDFATYYCLQTYSLPLTFGGGTNVEIK
B2: antibody 528S (antibody, V domains shown)
VH: EVQLAESGGGVVQPGRSLRLSCAASGFTFNSYGMHWVRQAPGKGLEWVAVIWDDGSKKYYADSVKGRFTISRDNSKNTLFLQMNSLRAEDTAVYYCARETIMFTFGEVIVSSRDNYYMDVWGKGTTVTVSS
VL: EIVLTQSPATLSLSPGERATLSCRASQSVSNYLAWYQQKPGQAPRLLIYDASTRAIGIPARFSGVGSGTDFTLTISSLEPEDFAVYYCQQRSNWPPLTFGGGTKVEIK
B3: antibody 365S (antibody, V domains shown)
VH: EVQLVESGGGLVQPGGSLRLSCAASGLTFSAYEMNWVRQAPGKGLEWVSHITTSGSAIYYADSVKGRFTISRDNAKNSLHLQMNRLRADDTAVYFCARDSTIVQCSGTSCHVSTYSYMDVWGKGTTVTVSS
VL: EIVLTQSPATLSLSPGERATLSCRASQSVTTYLAWYQHKPGQAPRLLIYDASKRATGIPARFSGSGSGTDFTLTISSLEPEDFAVYHCQQRSSWPPITFGQGTRLEIK
B4: antibody 405S (antibody, V domains shown)
VH: EVQLVESGGGLIQPGGSLRLSCAASGFTVSSHYMSWVRQAPGKGLEWVSGIYSGGRTHYADSVKGRFTISRDNSKNTLYLQMNSLRADDTAVYSCARGTLLYLYGMDVWGQGTTVTVSS
VL: QSVLTQPPSVSAAPGQRVTISCTGSSSNIGAGYNVHWYQQLPGAAPKLLIYGNTNRPSGVPDRFSGSKSGTSASLAITGLQAEDEADYYCQSFDSSLSGVFGTGTKVTVL
B5: antibody 377S (antibody, V domains shown)
VH: QVQLVQSGAEVKKPGSSVKVSCKASGGTFSNYAINWVRQAPGQGLEWMGRTIPFLGLTNYAENFQARVTITADKSTGTSYMQLSSLRSEDTAVYFCAKAATSGWSPFDNWGQGTLVTVSS
VL: EIVLTQSPGTLSLSPGERATLSCRASQSISSSYFGWYQQKPGQAPRLLIYGASRRAAGIPDRFSCSGSGTDFTLTISRLEPEDFGVYYCQQYGSSPTFGQGTKVEIK
B6: Fab generated from 503S (Fab, V domains shown)
VH: QVQLVQSGAEVKKPGASVRVSCKASGYTFTSYYMHWVRQAPGQGLEWMGQINPSGGTTRYERKFQGRITVTRDTSTSTVYLELSSLRSEDTASYFCACLRDKVTYYDLWSGVDSVWGQGTLVTVSS
VL: DIQMTQSPSSLSASVGDRVTITCRASQDISTWLAWYQQKPEKAPKSLIYAASTLETGVPSRFSGSGSGTDFTLTISSLQPEDFATYYCEQYNGFPRTFGQGTKLDIK
notes: also called 503S Fab
B7: Fab generated from 233S (Fab, V domains shown)
VH: EVQLVESGGGLGQPGGSLRLSCAASGFKFKIFGMNWVRQAPGKGLEWVSYISSRSSIIYYADSVKGRFTISRDDATNSLFLQMNSLRDEDTAMYYCVRDYNLIDFVWGSLFDYWGQGILVTVSS
VL: AIRMTQSPSSLSASTGDSVTITCRASQNIASYLAWYQQIPGKAPKLLIYVASTLQSGVPSRFSGSGSGTDFTLTISSLQSEDFATYYCQQYYRYPPTFGQGTKVEIK
B8: antibody 338S (antibody, V domains shown)
VH: EVQLVESGGGVVQPGRSLRLSCAASGFTFSQYGMHWVRQAPGKGLECVAVIWFDGSKKYYGDSVKGRFTISRDNSKNTLYLQMNSLRAEDTAVYFCARESLYYYDSGGHYYERGRIDYWGQGTLVTVSS
VL: DIQMTQSPSSLSASVGDRVTITCRASQDISNFLAWFQQKPGKAPKSLIYAASSLLSGVPSKFSGSGSGTDFTLTISSLQPEDFATYYCQQYNSYPPTFGQGTKLEIK
B9: Fab generated from 354S (Fab, V domains shown)
VH: QVQLVQSGAEVKKPGASVKVSCKASGYSFASYYIHWVRQAPGQGLEWMGIINPSGGTTSYAQKFQGRVTMTRDTSTSTVYMELSSLGSEDTAVYYCARIVDRVTIYLNGVDNYWGQGTLVTVSS
VL: EIVMTQSPATLSVSPGERVTLSCRASQSVSSNLAWFQQTPGQAPRLLIYGASTRASGVPARFSGSGSGTEFTLTISSLQSEDFAVYYCLQYNNWPPGWKYGFGQGTKLEIK
notes: also called 354S Fab
B10: Fab generated from 241S (Fab, V domains shown)
VH: QVQLVQSGSELKKPGASVKVSCKASGYTFTSYTVNWVRQAPGQGLEWMGWINTNTGNPTYAQGFTGRFVFSSDTSVSTAYLQISDLKAEDTAMYYCARHVAYDLWSGHTVTFDHWGQGTLVTVSS
VL: QSALTQPPSASGSPGQSVTISCTGTSSDVGAYNYVSWYQQHPGKAPKLIIYEVTKRPSGVPDRFSGSKSGNTASLTVSGLQAEDEADYYCSSKAGGKTYVFGTGTKVTVL
B11: antibody 285S (antibody, V domains shown)
VH: QVQLVQSGAEVKKPGSSVKVSCKASGGTFSTYAITWVRQAPGQGLEWMGRIIPILRVANYAQKFQGRVTITADSSTSTAYMELSSLRSEDTAVYYCANLLAYCGGDCRSDYWGQGTLVTVSS
VL: EIVLTQSPGTLSLSPGERATLSCRASQSVKNSYLAWYHQKPGQAPRLLIYGASSRATGIPDRFSGSGSGTDFTLTISRLEPEDFAVYYCQQYGSSLWTFGQGTKVDVK
B12: antibody 203S (antibody, V domains shown)
VH: QVQLVQSGAEVKKPGSSVKVSCKASGGTFSSYAISWVRQAPGQGLEWLGRILPALGLANYAQKYQDRVKITADKSTSTAYMELSRLGSEDTAVYYCARDRWVGAARRGQYFDYWGQGTQVTVSS
VL: DIQMTQSPATLSASVGDRVTITCRASQSIGTWLAWYQQKPGKAPKLLIYDASSLESGVPPRFSGSGSETEFTLTISSLQPDDFATYYCHQYKSYSYTFGQGTKLEIK
B13: antibody 382S (antibody, V domains shown)
VH: QVQLVQSGAEVKKPGSSVKVSCKASGGTFSNYGISWVRQAPGQGLEWMGRNIPIIGIANYAQKFQDRVTITADKSTSTVFMELRSLRYEDTAVYYCARDPLAARRGNWFDPWGQGTLVTVSS
VL: DIQMTQSPSTLSASVGDRVTITCRASQSVSSWLAWYQQKPGKAPKLLIYDASTLQSGVPSRFSGSGSGTEFTLTISSLQPDDFATYYCQQYNSYSYTFGQGTKLEIK
B14: antibody 335S (antibody, V domains shown)
VH: EVQLVESGGGVVQPGRSLRLSCAASGFSFSNYAMHWVRQAPGKGLEWVAVTWYDGSSKYHADSVKGRFTISRDNSKNTLYLQMNSLRAEDTAVYYCARWGMGIVASPGNVLNYYYFMDVWGQGTTVIVSS
VL: SYELTQPPSVSVSPGQTARITCSGNPLPKKHTYWYQQKPGQAPVLMIYKDSERPSRIPERFSGSSSGTTVTLTISGVQAEDEADYYCQSADSTGIVVFGGGTKLTVL

How the values were obtained:
[1] = target: T1, full-length Sudan GP (GPFL) (Sudan virus (SUDV), UniProt Q7T9D9 33-650); experiment: ELISA on coated GP
T1 construct: also called Sudan GPFL; GP(S)FL
T1 sequence: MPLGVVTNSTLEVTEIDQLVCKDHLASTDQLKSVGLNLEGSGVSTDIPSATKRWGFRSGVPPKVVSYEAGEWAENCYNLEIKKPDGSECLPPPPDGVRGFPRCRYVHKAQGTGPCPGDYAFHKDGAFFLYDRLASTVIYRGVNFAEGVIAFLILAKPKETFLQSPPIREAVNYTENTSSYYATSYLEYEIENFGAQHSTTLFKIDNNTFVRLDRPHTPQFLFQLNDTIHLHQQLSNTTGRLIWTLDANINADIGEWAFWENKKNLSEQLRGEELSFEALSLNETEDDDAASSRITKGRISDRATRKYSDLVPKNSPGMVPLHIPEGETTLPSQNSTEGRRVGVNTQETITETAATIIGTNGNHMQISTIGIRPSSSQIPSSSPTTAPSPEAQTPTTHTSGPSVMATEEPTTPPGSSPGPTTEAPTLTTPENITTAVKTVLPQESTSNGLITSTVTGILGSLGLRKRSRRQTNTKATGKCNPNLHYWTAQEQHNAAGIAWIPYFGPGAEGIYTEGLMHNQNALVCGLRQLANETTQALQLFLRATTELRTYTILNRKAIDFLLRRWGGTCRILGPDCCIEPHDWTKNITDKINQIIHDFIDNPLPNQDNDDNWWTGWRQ

[2] = target: T2, SUDV GP on pseudotyped lentiviral vector (Sudan virus (SUDV), UniProt Q7T9D9 33-676); experiment: cell-based or functional assay
T2 sequence: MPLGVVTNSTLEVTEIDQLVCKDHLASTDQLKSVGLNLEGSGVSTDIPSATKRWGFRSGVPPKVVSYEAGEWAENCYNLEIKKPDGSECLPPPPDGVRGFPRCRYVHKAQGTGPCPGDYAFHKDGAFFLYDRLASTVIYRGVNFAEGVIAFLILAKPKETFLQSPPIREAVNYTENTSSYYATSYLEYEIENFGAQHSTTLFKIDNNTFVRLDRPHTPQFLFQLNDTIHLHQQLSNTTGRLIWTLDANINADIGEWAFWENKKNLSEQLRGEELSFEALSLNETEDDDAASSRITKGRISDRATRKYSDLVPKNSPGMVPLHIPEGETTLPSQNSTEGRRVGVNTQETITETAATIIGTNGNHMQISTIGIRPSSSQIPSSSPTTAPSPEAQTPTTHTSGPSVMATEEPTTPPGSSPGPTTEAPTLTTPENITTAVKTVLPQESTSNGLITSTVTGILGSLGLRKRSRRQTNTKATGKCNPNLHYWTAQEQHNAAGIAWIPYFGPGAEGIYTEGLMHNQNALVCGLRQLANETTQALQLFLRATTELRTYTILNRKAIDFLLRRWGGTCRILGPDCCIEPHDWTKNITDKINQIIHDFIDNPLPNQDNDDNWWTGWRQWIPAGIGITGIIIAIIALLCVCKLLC

[3] = target: T1, full-length Sudan GP (GPFL); experiment: BLI, Fab, pH 5.3
[4] = target: T1, full-length Sudan GP (GPFL); experiment: BLI, Fab, pH 7.4

Binder	EC50 [1]	IC50, microneutralization of GP-pseudotyped lentiviral vector on HEK293 cells [2]	Kd [3]	koff [3]	kon [3]	Kd [4]	koff [4]	kon [4]
B1	0.01 µg/mL	0.15 µg/mL	–	–	–	–	–	–
B2	0.05 µg/mL	0.58 µg/mL	–	–	–	–	–	–
B3	0.11 µg/mL	0.79 µg/mL	–	–	–	–	–	–
B4	0.06 µg/mL	0.79 µg/mL	–	–	–	–	–	–
B5	0.14 µg/mL	0.56 µg/mL	–	–	–	–	–	–
B6	–	–	6.58 nM	0.000373 s⁻¹	56700 M⁻¹ s⁻¹	19.5 nM	0.00111 s⁻¹	56800 M⁻¹ s⁻¹
B7	–	–	7.56 nM	0.000358 s⁻¹	47300 M⁻¹ s⁻¹	7.53 nM	0.000543 s⁻¹	72100 M⁻¹ s⁻¹
B8	0.03 µg/mL	0.6 µg/mL	–	–	–	–	–	–
B9	–	–	6.12 nM	0.000445 s⁻¹	72700 M⁻¹ s⁻¹	8.89 nM	0.00076 s⁻¹	85600 M⁻¹ s⁻¹
B10	–	–	6.36 nM	0.000433 s⁻¹	68200 M⁻¹ s⁻¹	3.47 nM	0.000439 s⁻¹	127000 M⁻¹ s⁻¹
B11	0.02 µg/mL	0.64 µg/mL	–	–	–	–	–	–
B12	0.5 µg/mL	0.04 µg/mL	–	–	–	–	–	–
B13	0.35 µg/mL	0.71 µg/mL	–	–	–	–	–	–
B14	0.02 µg/mL	0.63 µg/mL	–	–	–	–	–	–
